Data published in patent US20260193376A1 (Novo Nordisk, published 2026).

The binders below were run against human plasma-derived Factor IXa (human, UniProt P00740 47-191; P00740 227-461) (assay: cell-based or functional assay).
Chain of human plasma-derived Factor IXa (P00740 47-191, chain 1 of 2): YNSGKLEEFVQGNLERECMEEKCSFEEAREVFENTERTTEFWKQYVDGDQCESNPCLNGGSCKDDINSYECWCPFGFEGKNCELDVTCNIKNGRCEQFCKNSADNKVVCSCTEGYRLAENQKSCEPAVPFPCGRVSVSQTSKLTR
Chain of human plasma-derived Factor IXa (P00740 227-461, chain 2 of 2): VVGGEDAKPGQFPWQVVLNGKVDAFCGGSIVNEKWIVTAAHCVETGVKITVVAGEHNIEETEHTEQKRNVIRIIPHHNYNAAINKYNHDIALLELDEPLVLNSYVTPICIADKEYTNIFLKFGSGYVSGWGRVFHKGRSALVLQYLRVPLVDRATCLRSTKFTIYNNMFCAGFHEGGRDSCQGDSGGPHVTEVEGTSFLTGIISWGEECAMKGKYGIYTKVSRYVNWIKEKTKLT

Binder	Stimulation Index, FXa generation assay, 800 nM OA antibody	Stimulation Index, FXa generation assay, 1600 nM OA antibody
one-armed (OA) mAb01-9986 (antibody, V domains shown) VH: EVQLVESGGGLVQPGRSLRLSCAASGFTFHDYAMHWVRQVPGKGLEWVSGISWRGDIGGYVKSVKGRFTISRDNAKNSLYLQMNSLRAEDTALYYCVKSYGSGSFYNAFDSWGQGTLVTVSS VL: DIQMTQSPSTLSASVGDRVTITCRASQSISSWLAWYQQKPGKAPKFLIYKASRLERGTPSRFSGSGSGTEFSLTISSLQPDDFATYYCLEYSSYIRTFGQGTKVEIK	5820 fold	
one-armed (OA) mAb11-0932 (antibody, V domains shown) VH: EVQLVESGGGLVQPGRSLRLSCAASGFTFHDYAMHWVRQVPGKGLEWVSGISWKGDIGGYVDSVKGRFTISRDNEKNSLYLQMNSLRAEDTALYYCVKSYGSGSFYNAFDSWGQGTLVTVSS VL: DIQMTQSPSTLSASVGDRVTITCRASQSISSWLAWYQQKPGKAPKFLIYKASRLDRGMPSRFSGSGSGTEFSLTISSLQPDDFATYYCLEYSSYIRTFGQGTKVEIK	1690 fold	
one-armed (OA) mAb11-0174 (antibody, V domains shown) VH: EVQLVESGGGLVQPGRSLKLSCAASGFTFHDYAMHWVRQAPGKGLEWVSGISWKGDIGGYVDSVKGRFTISRDNAKNSLYLQMNSLRAEDTALYYCAKSYGSGSFYNAFDSWGQGTLVTVSS VL: DIQMTQSPSTLSASVGDRVTITCRASQSISSWLAWYQQKPGKAPKFLIYKASKLDRGTPSRFSGSGSGTEFTLTISSLQPDDFATYYCLEYSSYIRTFGQGTKVEIK	3690 fold	
one-armed (OA) mAb11-0164 (antibody, V domains shown) VH: EVQLVESGGGLVQPGRSLKLSCAASGFRFDDYAMHWVRQVPGKGLEWVSGISWKGDIGGYADSVKGRFTISRDNAKNSLYLQLNSLRAEDTALYYCVKSYGSGSFYNAFDSWGQGTLVTVSS VL: DIQMTQSPSTLSASVGDRVTITCRASQSISSWLAWYQQKPGKAPKFLIYKASRLERGTPSRFSGSGSGTEFSLTISSLQPDDFATYYCLEYSSYIRTFGQGTKVEIK	3270 fold	
one-armed (OA) mAb11-0049 (antibody, V domains shown) VH: EVQLVESGGGLVQPGRSLRLSCAASGFTFHDYAMHWVRQAPGKGLEWVSGISWRGDIKGYVDSVKGRFTISRDNAKNSLYLQLNSLRAEDTALYYCAKSYGSGSFYNAFDSWGQGTLVTVSS VL: DIQMTQSPSTLSASAGDRVTISCRASQSISSWLAWYQQKPGKAPKLLIYKASRLDRGTPSRFSGSGSGTEFTLTISSLQPDDFATYYCLEYNSYIRTFGQGTKVEIK	1510 fold	
one-armed (OA) mAb11-0935 (antibody, V domains shown) VH: EVQLVESGGGLVQPGRSLRLSCAASGFTFHDYAMHWVRQVPGKGLEWVSGISWKGDIGGYVDSVKGRFTISRDNEKNSLYLQMNSLRAEDTALYYCVKSYGSGSFYNAFDSWGQGTLVTVSS VL: DIQMTQSPSTLSASVGDRVTITCRASQSISSWLAWYQQKPGKAPKFLIYKASRLDRGQPSRFSGSGSGTEFSLTISSLQPDDFATYYCLEYSSYIRTFGQGTKVEIK	1570 fold	
one-armed (OA) mAb11-0160 (antibody, V domains shown) VH: EVQLVESGGGLVQPGRSLKLSCAASGFRFDDYAMHWVRQVPGKGLEWVSGISWKGDIGGYADSVKGRFTISRDNAKNSLYLQLNSLRAEDTALYYCVKSYGSGSFYNAFDSWGQGTLVTVSS VL: DIQMTQSPSTLSASVGDEVTITCRASKSISSWLAWYQQKPGKAPRFLIYKASRLERGTPQRFSGSGSGTEFTLTIYSLQPDDFATYYCLEYSSYIRTFGQGTKVEIK	4550 fold	
one-armed (OA) mAb11-0723 (antibody, V domains shown) VH: EVQLVESGGGLVQPGRSLKLSCAASGFTFDDYAMHWVRQVPGKGLEWVSGISWKGDIGGYVDSVKGRFTISRDNAKNSLYLQLNSLRAEDTALYYCAKSYGSGSFYNAFDSWGQGTLVTVSS VL: DIQMTQSPSTLSASAGDRVTITCRASQSISSWLAWYQQKPGKAPKFLIYKASRLDRGTPSRFSGSGSGTEFSLTISSLQPDDFATYYCLEYSSYIRTFGQGTKVEIK	3770 fold	
one-armed (OA) mAb11-0107 (antibody, V domains shown) VH: EVQLVESGGGLVQPGRSLKLSCAASGFTFHDYAMHWVRQVPGKGLEWVSGISWRGDIGGYVKSVKGRFTISRDNAKNSLYLQLNSLRAEDTALYYCVKSYGSGSFYNAFDSWGQGTLVTVSS VL: DIQMTQSPSTLSASVGDEVTITCRASQSISSWLAWYQQKPGKAPKFLIYKAQRLDRGTPQRFSGSGSGTEFTLTISSLQPDDFATYYCLEYSSYIRTFGQGTKVEIK	3260 fold	
one-armed (OA) mAb11-0931 (antibody, V domains shown) VH: EVQLVESGGGLVQPGRSLRLSCAASGFTFHDYAMHWVRQVPGKGLEWVSGISWKGDIGGYVDSVKGRFTISRDNEKNSLYLQMNSLRAEDTALYYCVKSYGSGSFYNAFDSWGQGTLVTVSS VL: DIQMTQSPSTLSASVGDRVTITCRASQSISSWLAWYQQKPGKAPKFLIYKASRLDRGLPSRFSGSGSGTEFSLTISSLQPDDFATYYCLEYSSYIRTFGQGTKVEIK	1880 fold	
one-armed (OA) mAb01-9016 (antibody, V domains shown) VH: EVQLVESGGGLVQPGRSLKLSCAASGFTFDDYAMHWVRQVPGKGLEWVSGISWRGDIGGYVDSVKGRFTISRDNAKNSLYLQLNSLRAEDTALYYCVKSYGSGSFYNAFDSWGQGTLVTVSS VL: DIQMTQSPSTLSASAGDRVTITCRASQSISSWLAWYQQKPGKAPKFLIYKASRLERGVPSRFSGSGSGTEFSLTISSLQPDDFATYYCLEYSSYIRTFGQGTKVEIK		5900 fold
one-armed (OA) mAb11-0937 (antibody, V domains shown) VH: EVQLVESGGGLVQPGRSLRLSCAASGFTFHDYAMHWVRQVPGKGLEWVSGISWKGDIGGYVDSVKGRFTISRDNEKNSLYLQMNSLRAEDTALYYCVKSYGSGSFYNAFDSWGQGTLVTVSS VL: DIQMTQSPSTLSASVGDRVTITCRASQSISSWLAWYQQKPGKAPKFLIYKASRLDRGSPSRFSGSGSGTEFSLTISSLQPDDFATYYCLEYSSYIRTFGQGTKVEIK	2680 fold	
one-armed (OA) mAb11-0047 (antibody, V domains shown) VH: EVQLVESGGGLVQPGRSLRLSCAASGFTFHDYAMHWVRQAPGKGLEWVSGISWRGDIKGYVDSVKGRFTISRDNAKNSLYLQLNSLRAEDTALYYCAKSYGSGSFYNAFDSWGQGTLVTVSS VL: DIQMTQSPSTLSASAGDRVTITCRASKSISSWLAWYQQKPGKAPKFLIYKASRLDRGTPQRFSGSGSGTEFSLTISSLQPDDFATYYCLEYSSYIRTFGQGTKVEIK	2860 fold	
one-armed (OA) mAb11-0933 (antibody, V domains shown) VH: EVQLVESGGGLVQPGRSLRLSCAASGFTFHDYAMHWVRQVPGKGLEWVSGISWKGDIGGYVDSVKGRFTISRDNEKNSLYLQMNSLRAEDTALYYCVKSYGSGSFYNAFDSWGQGTLVTVSS VL: DIQMTQSPSTLSASVGDRVTITCRASQSISSWLAWYQQKPGKAPKFLIYKASRLDRGNPSRFSGSGSGTEFSLTISSLQPDDFATYYCLEYSSYIRTFGQGTKVEIK	1610 fold	
one-armed (OA) mAb11-0149 (antibody, V domains shown) VH: EVQLVESGGGLVQPGRSLKLSCAASGFTFDDYAMHWVRQAPGKGLEWVSGISWKGDIGGYVDSVKGRFTISRDNAKNSLYLQMNSLRAEDTALYYCVKSYGSGSFYNAFDSWGQGTLVTVSS VL: DIQMTQSPSTLSASAGDEVTITCRASQSIKSWLAWYQQKPGKAPKFLIYKASRLDRGTPQRFSGSGSGTEFSLTISRLQPDDFATYYCLEYSSYIRTFGQGTKVEIK	3320 fold	
one-armed (OA) mAb11-0173 (antibody, V domains shown) VH: EVQLVESGGGLVQPGRSLRLSCAASGFTFHDYAMHWVRQAPGKGLEWVSGISWKGDIGGYVDSVKGRFTISRDNAKNSLYLQMNSLRAEDTALYYCAKSYGSGSFYNAFDSWGQGTLVTVSS VL: DIQMTQSPSTLSASVGDRVTITCRASQSISSWLAWYQQKPGKAPKFLIYKASKLDRGTPSRFSGSGSGTEFTLTISSLQPDDFATYYCLEYSSYIRTFGQGTKVEIK		8480 fold
one-armed (OA) mAb11-0929 (antibody, V domains shown) VH: EVQLVESGGGLVQPGRSLRLSCAASGFTFHDYAMHWVRQVPGKGLEWVSGISWKGDIGGYVDSVKGRFTISRDNEKNSLYLQMNSLRAEDTALYYCVKSYGSGSFYNAFDSWGQGTLVTVSS VL: DIQMTQSPSTLSASVGDRVTITCRASQSISSWLAWYQQKPGKAPKFLIYKASRLDRGIPSRFSGSGSGTEFSLTISSLQPDDFATYYCLEYSSYIRTFGQGTKVEIK	1560 fold	
one-armed (OA) mAb11-0939 (antibody, V domains shown) VH: EVQLVESGGGLVQPGRSLRLSCAASGFTFHDYAMHWVRQVPGKGLEWVSGISWKGDIGGYVDSVKGRFTISRDNEKNSLYLQMNSLRAEDTALYYCVKSYGSGSFYNAFDSWGQGTLVTVSS VL: DIQMTQSPSTLSASVGDRVTITCRASQSISSWLAWYQQKPGKAPKFLIYKASRLDRGWPSRFSGSGSGTEFSLTISSLQPDDFATYYCLEYSSYIRTFGQGTKVEIK	2010 fold	
one-armed (OA) mAb11-0938 (antibody, V domains shown) VH: EVQLVESGGGLVQPGRSLRLSCAASGFTFHDYAMHWVRQVPGKGLEWVSGISWKGDIGGYVDSVKGRFTISRDNEKNSLYLQMNSLRAEDTALYYCVKSYGSGSFYNAFDSWGQGTLVTVSS VL: DIQMTQSPSTLSASVGDRVTITCRASQSISSWLAWYQQKPGKAPKFLIYKASRLDRGVPSRFSGSGSGTEFSLTISSLQPDDFATYYCLEYSSYIRTFGQGTKVEIK	1820 fold	
one-armed (OA) mAb11-0923 (antibody, V domains shown) VH: EVQLVESGGGLVQPGRSLRLSCAASGFTFHDYAMHWVRQVPGKGLEWVSGISWKGDIGGYVDSVKGRFTISRDNEKNSLYLQMNSLRAEDTALYYCVKSYGSGSFYNAFDSWGQGTLVTVSS VL: DIQMTQSPSTLSASVGDRVTITCRASQSISSWLAWYQQKPGKAPKFLIYKASRLDRGCPSRFSGSGSGTEFSLTISSLQPDDFATYYCLEYSSYIRTFGQGTKVEIK	2820 fold	
